Assay in all cases: ELISA
Assay [1] concerns the target CSPG4 domain 1 fragment D1_(401-560) with C-terminal GFP tag (UniProt Q6UVK1).
Assay [2] deals with truncated wild-type TcdB (residues 550-1902) (Clostridioides difficile (VPI 10463 …, UniProt P18177 550-1902)). Conditions: both partners purified.
The target of assay [3] is full-length Clostridioides difficile Toxin B (TcdB), C-terminal 6XHis-tag (Clostridioides difficile (VPI 10463 …, UniProt P18177 1-2366)). Conditions: both partners purified.

Substitutions are numbered along the chain they refer to. Names and notes keep the numbering of the source.

In assay [1], “truncated TcdB (550-1902) [change] (from UniProt P18177 550-1902) (domain or fragment)” had a fold reduction of binding against wild type of 1 fold.

B1: CSPG4 domain 1 fragment D1_(401-560) with C-terminal GFP tag (domain or fragment, UniProt Q6UVK1 401-560, looked up)
chain: LAPEAWPAMELPEPCVPEPGLPPVFANFTQLLTISPLVVAEGGTAWLEWRHVQPTLDLMEAELRKSQVLFSVTRGARHGELELDIPGAQARKMFTLLDVVNRKARFIHDGSEDTSDQLVLEVSVTARVPMPSCLRRGQTYLLPIQVNPVNDPPHIIFPHG
notes: not shown: GFP, C-terminal, kept
In the case of B1, the binding result in assay [2] is given as “binds”.

B2: D1_(401-560) E460A, C-terminal GFP tag (domain or fragment)
chain: B1 chain with E60A
notes: as for B1
Take B2: in assay [3], the binding result is on record as “binds”.

B3: D1_(401-560) D457A, C-terminal GFP tag (domain or fragment)
chain: B1 chain with D57A
notes: as for B1
Consider B3, for which, in assay [3], the binding result was “binds”.

For the origin of these results see article PMC8982864 (PLoS Biology, 2022).
